Assay results taken from PMC6550519, “Regulatory Mechanism of Nicotine Degradation in Pseudomonas putida” (mBio, 2019).

Key:
NicR2 = assay: ITC, […] HSP titrated into […] purified free NicR2; supported by EMSA; assay type: binding, Pseudomonas putida
[1] = tested on: NicR2 (Pseudomonas putida S16); assay: ITC; details: EMSA: 10 mM Tris-HCl, 100 mM NaCl, 27 nM DNA, 180 nM NicR2, 30 min room temperature, 9% native PAGE; ITC: PBS, 64 uM NicR2 in cell, 100 uM DNA titrant …

| Molecule | Kd (NicR2) | Kd [1] |
| --- | --- | --- |
| O=C(O)CCC(=O)c1ccc(O)nc1 [HSP, 6-hydroxy-3-succinoyl-pyridine] | 4950 ± 480 nM | – |
| CACTAATTATACCGTCGTACATAGAATAAA (double strand) [R-m3 30 bp] | – | 1800 nM |
| CACTAATTATACCGTCGTACATATAATAAA (double strand) [wild type 30 bp (Pspm inverted repeat)] | – | 180 nM |
| CACTAATTATACCGTCGTACATATCCTAAA (double strand) [R-m12 30 bp] | – | 140 nM |
| CACTAATTATACCGTCGTACATCTAATAAA (double strand) [R-m4 30 bp] | – | 570 nM |
